Values of other authors, collected in patent publication US11324773B2, “Compounds, compositions and methods for inhibiting a pathogen and/or modifying mucus” (The University of North Carolina at Chapel Hill, priority 2017, dated 2022).

What was measured:
HBE mucus = conditions: 30 μM, 24 h, versus controls
expectorated sputum = conditions: patients with CF, 10 d, 2.5 mg twice daily

CC(=O)N[C@@H](CS)C(=O)O [N-acetylcysteine]
decrease of viscosity and elasticity of HBE mucus (HBE mucus): by an order of magnitude

B1: dornase alfa (protein, UniProt P24855 23-282, looked up)
Deoxyribonuclease-1: LKIAAFNIQTFGETKMSNATLVSYIVQILSRYDIALVQEVRDSHLTAVGKLLDNLNQDAPDTYHYVVSEPLGRNSYKERYLFVYRPDQVSAVDSYYYDDGCEPCGNDTFNREPAIVRFFSRFTEVREFAIVPLHAAPGDAVAEIDALYDVYLDVQEKWGLEDVMLMGDFNAGCSYVRPSQWSSIRLWTSPTFQWLIPDSADTTATPTHCAYDRIVVAGMLLRGAVVPDSALPFNFQAAYGLSDQLAQAISDHYPVEVMLK
notes: conventional mucolytic therapy used to treat CF
reduction of expectorated sputum elasticity (expectorated sputum): 68% | reduction of expectorated sputum viscosity (expectorated sputum): 59%
